In article PMC7597377 (Science signaling, 2020):
Read-outs that look alike come from different tables or passages of the source.

Key:
Test in all cases: FRET or BRET
[1] = target: T1, ERα ligand-binding domain, wild type (ERα-LBD-biotin) (human, biotin)
[2] = target: T2, ERα ligand-binding domain Q375K (ERα-LBD-biotin) (human, biotin)
[3] = target: T3, ERα ligand-binding domain Q375E (ERα-LBD-biotin) (human, biotin)
[4] = target: T4, ERα ligand-binding domain Q375A (ERα-LBD-biotin) (human, biotin)
[5] = target: T1, ERα ligand-binding domain, wild type …; remark: listed apart in the source
[6] = target: T2, ERα ligand-binding domain Q375K …; remark: listed apart in the source
[7] = target: T3, ERα ligand-binding domain Q375E …; remark: listed apart in the source
[8] = target: T4, ERα ligand-binding domain Q375A …; remark: listed apart in the source
[9] = target: T1, ERα ligand-binding domain, wild type …; remark: listed apart in the source
[10] = target: T2, ERα ligand-binding domain Q375K …; remark: listed apart in the source
[11] = target: T3, ERα ligand-binding domain Q375E …; remark: listed apart in the source
[12] = target: T4, ERα ligand-binding domain Q375A …; remark: listed apart in the source
[13] = target: T1, ERα ligand-binding domain, wild type …; remark: listed apart in the source
[14] = target: T2, ERα ligand-binding domain Q375K …; remark: listed apart in the source
[15] = target: T3, ERα ligand-binding domain Q375E …; remark: listed apart in the source
[16] = target: T4, ERα ligand-binding domain Q375A …; remark: listed apart in the source
[17] = target: T1, ERα ligand-binding domain, wild type …; remark: listed apart in the source
[18] = target: T2, ERα ligand-binding domain Q375K …; remark: listed apart in the source
[19] = target: T3, ERα ligand-binding domain Q375E …; remark: listed apart in the source
[20] = target: T4, ERα ligand-binding domain Q375A …; remark: listed apart in the source
[21] = target: T1, ERα ligand-binding domain, wild type …; remark: listed apart in the source
[22] = target: T2, ERα ligand-binding domain Q375K …; remark: listed apart in the source
[23] = target: T3, ERα ligand-binding domain Q375E …; remark: listed apart in the source
[24] = target: T4, ERα ligand-binding domain Q375A …; remark: listed apart in the source

B1: SRC1 NR interaction domain (ca. 200 amino acids), FRET acceptor-labeled (domain or fragment)
chain: PSRLNIQPAKAESKDNKEIASILNEMIQSDNSSSDGKPLDSGLLHNNDRLSDGDSKYSQTSHKLVQLLTTTAEQQLRHADIDTSCKDVLSCTGTSNSASANSSGGSCPSSHSSLTERHKILHRLLQEGSPSDITTLSVEPDKKDSASTSVSVTGQVQGNSSIKLELDASKKKESKDHQLLRYLLDKDEKDLRSTPNLSLDDVKVKVEKKEQ
modifications: FRET acceptor label (not named)
B1 was tested, and the Kd [1] was 6.4 nM, the Kd [2] was 2.1 nM and the “fold reduction in SRC1 binding vs WT ER (Kd mutant/Kd WT)” value (“fold reduction in SRC1 binding vs WT ER” for short) [3] was 3.4 fold. For the same binder, the “fold reduction in SRC1 binding vs WT ER” value [4] was 8 fold, the Kd [5] was 3 nM and the Kd [6] was 1.6 nM. The “fold reduction in SRC1 binding vs WT ER” value [7] was 8.7 fold, the “fold reduction in SRC1 binding vs WT ER” value [8] was 16 fold and the Kd [9] was 6.8 nM. For the same binder, the Kd [10] was 2.2 nM, the “fold reduction in SRC1 binding vs WT ER” value [11] was 2.8 fold and the “fold reduction in SRC1 binding vs WT ER” value [12] was 8.8 fold. For the same binder, the Kd [13] was 3.5 nM, the Kd [14] was 1.5 nM and the “fold reduction in SRC1 binding vs WT ER” value [15] was 7.4 fold. For the same binder, the “fold reduction in SRC1 binding vs WT ER” value [16] was 21 fold, the “fold increase in SRC1 binding with ligand vs E2 (Kd E2/Kd compound)” value [17] was 0.3 fold and the “fold increase in SRC1 binding with ligand vs E2 (Kd E2/Kd compound)” value [18] was 0.16 fold. The “fold reduction in SRC1 binding vs WT ER” value [18] was 0.62 fold, the “fold reduction in SRC1 binding vs WT ER” value [19] was 4.2 fold and the “fold reduction in SRC1 binding vs WT ER” value [20] was 5.5 fold. The Kd [21] was 3.4 nM, the Kd [22] was 1.7 nM and the “fold reduction in SRC1 binding vs WT ER” value [23] was 11 fold. For the same binder, the “fold reduction in SRC1 binding vs WT ER” value [24] was 17 fold.
